Measured values published in paper doi:10.1101/432989 (bioRxiv, 2018).

Tests used:
[1] = biological target: MazF-mt9 (Mycobacterium tuberculosis); assay: ITC
crystal structure = biological target: the molecule itself; assay: crystal structure

Binder | Kd [1] [nM] | fold increase of KD against WT MazE-mt9 [1] [fold] | also measured
MazE-mt1 (natural protein) MKLSVSLSDDDVAILDAYVKRAGLPSRSAGLQHAIRVLRYPTLEDDYANAWQEWSAAGDTDAWEQTVGDGVGDAPR | 59.3 |  | 
MazE-mt1 D69A mutant (natural protein) MKLSVSLSDDDVAILDAYVKRAGLPSRSAGLQHAIRVLRYPTLEDDYANAWQEWSAAGDTDAWEQTVGAGVGDAPR |  |  | fold weakening of affinity against WT MazE-mt1 [1]: 5.3 fold
MazE-mt9 (natural protein) MSTSTTIRVSTQTRDRLAAQARERGISMSALLTELAAQAERQAIFRAEREASHAETTTQAVRDEDREWEGTVGDGLG | 17.5 |  | binding result (crystal structure): binds
MazE-mt9 D74A mutant (natural protein) MSTSTTIRVSTQTRDRLAAQARERGISMSALLTELAAQAERQAIFRAEREASHAETTTQAVRDEDREWEGTVGAGLG |  | 2 | 
MazE-mt9 R46A-E48A-D74A triple mutant (natural protein) MSTSTTIRVSTQTRDRLAAQARERGISMSALLTELAAQAERQAIFAAAREASHAETTTQAVRDEDREWEGTVGAGLG |  | 8 | 
